For assay [1], the target named is His-tagged CRABP1 R29A (Mus musculus). Put plainly: pull-down; purified His-CRABP1 (WT or mutant, 5 uM) held on Ni-NTA resin as bait; 250 ug pre-cleared lysate of HEK293T cells expressing GFP-CaMKII (DMSO or ionomycin 10 uM, 10 min) as prey; 50 mM Tris pH 8.0, 150 mM NaCl, 0.2% NP-40, 20% glycerol, 200 mM imidazole, overnight at 4°C; Western blot with anti-GFP and anti-His; densitometry gives the CCI (n = 5).

For assay [2], the target named is His-tagged CRABP1 H94A (Mus musculus). The assay is described as above.
The target in assay [3] is His-tagged CRABP1 T96A (Mus musculus). The description is as above.
The target of assay [4] is T1, 15N-labeled wild-type cellular retinoic acid-binding protein 1 (CRABP1) (Mus musculus, UniProt P62965 2-137, 15N-labeled).
T1 construct: also called 15N-labeled CRABP1; 15N WT CRABP1; source: expressed and purified as described in Park et al. (2019); SEC
Put plainly: NMR titration; 15N-1H HSQC of 15N-labeled CRABP1 (19 uM) without and with CaMK-R peptide (200 uM); 30 mM d11-Tris-d3-acetate pH 6.2, 75 mM Na2SO4, 10 uM ZnCl2, 1 mM TCEP, 30°C. To be noted: both partners purified.

T1 sequence (P62965 2-137): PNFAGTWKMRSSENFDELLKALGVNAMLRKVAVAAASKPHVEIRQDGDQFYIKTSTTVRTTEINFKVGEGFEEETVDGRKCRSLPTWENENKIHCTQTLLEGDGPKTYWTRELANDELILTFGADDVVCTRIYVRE

As for “GFP-CaMKII beta, inactive (from vehicle-treated HEK293T cells) (from UniProt P08413 1-542) (cell lysate)”, the CRABP1–CaMKII Complex Index (CCI; ratio of inactive to active CaMKII pulled down) in assay [1] was 1. In the case of “GFP-CaMKII beta, inactive (from vehicle-treated HEK293T cells) (from UniProt P08413 1-542) (enzyme)”, the CRABP1–CaMKII Complex Index (CCI; ratio of inactive to active CaMKII pulled down) in assay [2] and in assay [3] was 1 throughout.

B1: CaMK-R peptide (29-residue peptide, residues 281–309 of the regulatory segment of CaMKII alpha) (peptide, UniProt P11798 281-309, looked up)
peptide: MHRQETVDCLKKFNARRKLKGAILTTMLA
notes: also called CAMKII-R; CaMKII peptide; source: synthetic peptide (University of Minnesota Peptide Synthesis Services)
Regarding B1, in assay [4], the binding result is given as “binds”.

Values taken from PMC10562560, “Molecular basis for cellular retinoic acid-binding protein 1 in modulating CaMKII activation” (Frontiers in Molecular Biosciences, 2023).
